2 substances from patent publication US20250011440A1 can be followed below.

The target in test [1] is human FcRn-His-GST (FcRn fused to a His-tag and glutathione S transferase) (human) (UniProt P55899). Put plainly: AlphaScreen competition vs wild-type Fc, pH 6.0 (FIG. 13).
For test [2] the target is unchanged. Put plainly: AlphaScreen competition, pH 6.0 (FIG. 13).

Sequence of UniProt P55899 (P55899 24-297, chain 1 of 2): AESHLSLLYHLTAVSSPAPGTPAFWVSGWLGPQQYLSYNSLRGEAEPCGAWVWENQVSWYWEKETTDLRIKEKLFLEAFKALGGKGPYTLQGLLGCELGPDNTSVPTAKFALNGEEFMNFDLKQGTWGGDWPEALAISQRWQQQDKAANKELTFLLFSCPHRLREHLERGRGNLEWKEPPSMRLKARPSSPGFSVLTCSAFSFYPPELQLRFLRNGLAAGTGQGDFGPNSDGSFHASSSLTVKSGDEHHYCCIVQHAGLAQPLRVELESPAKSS
Sequence of UniProt P55899 (P61769 21-119, chain 2 of 2, further chain): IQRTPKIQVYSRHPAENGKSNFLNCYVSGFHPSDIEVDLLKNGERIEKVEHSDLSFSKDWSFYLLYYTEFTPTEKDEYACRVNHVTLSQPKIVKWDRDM

Substance “IgG1 Fc variant N286# (deletion of N286; taken as in the anti-HER2 antibody trastuzumab)” gave a fold increase in FcRn affinity (vs wild type) in test [1] of 2 fold.

In test [2], “IgG1 Fc variant ^254N (Asn inserted after position 254; taken as in the anti-HER2 antibody trastuzumab)” came in with a percent of the binding affinity of the wild type of 1.1%.
